Experimental data reported in publication doi:10.1101/795211 (bioRxiv, 2019).

T1: His-tagged AtYefM co-expressed with AtYoeB from the pET-Duet vector (Agrobacterium tumefaciens strC58, UniProt Q7CY23 1-84)
T1 sequence (looked up): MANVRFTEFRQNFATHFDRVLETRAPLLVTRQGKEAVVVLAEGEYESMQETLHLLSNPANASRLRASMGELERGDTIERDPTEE

B1: His-AtYefM, YefM antitoxin from Agrobacterium tumefaciens expressed alone (pET15b), His affinity tag kept (natural protein, Agrobacterium tumefaciens strC58, UniProt Q7CY23 1-84, looked up)
chain: T1 sequence (looked up)
B2: YoeB toxin from Agrobacterium tumefaciens (AtYoeB), expressed alone, after removal of the GST-His affinity tag (natural protein)
chain: MKLVWTLSSWDDYEFWQRTDARMVEKINDLIRNAKRTPFAGLGKPEPLKGDMAGYWSRRITAEHRFVYRVSGSGSEQRLEVIQCRFHYQ
B3: AtYoeB co-expressed with His-AtYefM from the pET-Duet vector (natural protein)
chain: B2 chain

Experiments:
SEC-MALS = target: the molecule itself; test: SEC-MALS
[1] = target: T1, His-tagged AtYefM co-expressed with …; test: SEC-MALS

| Binder | stoichiometry N (SEC-MALS) | stoichiometry N [1] |
| --- | --- | --- |
| B1 | 2 | – |
| B2 | 2 | – |
| B3 | – | 1 |
